Measured values as given in publication PMC4649906, “Unraveling the molecular architecture of a G protein-coupled receptor/β-arrestin/Erk module complex” (Scientific Reports, 2015).

Molecular target: T1, human recombinant β-arrestin 1 (human, UniProt P49407 1-418)
T1 construct: β-arrestin 1, human, recombinant; Used as the prey (25 ng) in the GST pull-downs; source: bought: Gentaur (human recombinant)
Test: pull-down; GST fusion protein immobilised on Glutathione Sepharose 4B beads; 25 ng human recombinant β-arrestin 1 as prey, with or without 0.5 mM peptide; 20 mM Hepes pH 7.9, 50 mM KCl, 2.5 mM MgCl2, 1 mM DTT, 10% glycerol, protease and phosphatase inhibitors; 1 hour at 4 °C; six washes; blot with anti-β-arrestin, quantified as the ratio of β-arrestin 1 over GST fusion
Settings: both partners purified

T1 sequence (P49407 whole entry): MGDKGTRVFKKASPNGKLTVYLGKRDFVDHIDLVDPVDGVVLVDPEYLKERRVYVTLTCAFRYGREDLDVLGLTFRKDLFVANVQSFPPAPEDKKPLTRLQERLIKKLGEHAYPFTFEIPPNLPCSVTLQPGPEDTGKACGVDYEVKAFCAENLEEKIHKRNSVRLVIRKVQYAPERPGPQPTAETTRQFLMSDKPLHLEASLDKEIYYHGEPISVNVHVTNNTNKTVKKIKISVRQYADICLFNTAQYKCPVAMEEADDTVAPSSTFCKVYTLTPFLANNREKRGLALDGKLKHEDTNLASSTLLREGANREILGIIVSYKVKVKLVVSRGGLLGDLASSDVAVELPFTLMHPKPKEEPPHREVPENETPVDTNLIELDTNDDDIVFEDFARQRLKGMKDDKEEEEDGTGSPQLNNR

binding result	Binder
binds	KQRTVVNVRN (stretch of Raf1 at the predicted interface with β-arrestin 1, within the RBD; Printed as H-KQRTVVNVRN-OH (free ends); Resuspended in H2O and used at 0.5 mM; source: synthetic peptide (Genecust laboratories)) [Raf1 interfering peptide]
binds	ISPFEHQTY (stretch of ERK2 at the predicted interface with β-arrestin 1; Printed as H-ISPFEHQTY-OH (free ends); Resuspended in H2O + 5% DMSO and used at 0.5 mM; source: synthetic peptide (Genecust laboratories)) [ERK interfering peptide]
